According to the nanobody polyreactivity screen of Harvey et al. (2022):

Assay: yeast display, Sf9 membrane polyspecificity reagent, FACS + sequencing; frameworks hold sequencing errors
Outline: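 Nanobodies came from a synthetic yeast display library in Saccharomyces cerevisiae BJ5465, induced with galactose for 36–48 hours and stained for 1 hour at 4 °C with 10% biotinylated, detergent-solubilized Sf9 membrane reagent. Cells were enriched on streptavidin microbeads and then FACS-sorted, with low and high (top ~1%) gates set on anti-HA fluorescence for expression and streptavidin fluorescence for reagent binding. Each polyreactivity label reflects the gate a clone came from. Genes were amplified by colony PCR, sequenced by MiSeq 2 × 250 and filtered by CDR length.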

Sequence | polyreactivity (PSR sort gate)
QVQLVESGGGLVQAGGSLRLSCAASGYTFGSNAMGWYRQAPGKERELVAAISTNGGRTNYADSVKGRFTISRDYAKNSVYLQMYSLIPEDTAVYYCNTRLRVRYYLSGFDYWGQGTQVTVSS | high polyreactivity
QVQLVESGGGLVQAGGSLRLSCAASGYTFGWYAMGWYRQAPGKERELVAAITSDGSTYYADSVKGRFTISRDNEKNTVYLQMNSLIPVDTAVYYCAADATFDSDWGQGTQVTVSS | low polyreactivity
QVQLVESGGGLVQAGGSLRLSCAASGYTFGYYTMGWYRQAPGKERELVASIDSGGGTYYADSVKGRFTISRDNAKNTVYLQMNSLKPEDTAVYYCAARSAILKSGYLMDYWGQGTQVTVSS | low polyreactivity
QVQLVESGGGLVQAGGSLRLSCAASGYTFGYYTMGWYRQAPRKERELVASIDSGGGTNYADSVKGRFTISRDNAKNTVYLQMNSLKPEDTAVYYCAAESPLYWVDDFESGWRYYYWGQGTQVTVSS | low polyreactivity
QVQLVESGGGLVQAGGSLRLSCAASGYTFHGNAMGWYRQAPGKERELVAAISRNGGRTYYADSVKGRFTISRDNAKNTVYLQMHSLKPEDTAVYYCNASKFYGVRFKYDYWGQGTQVTVSS | high polyreactivity
QVQLVESGGGLVQAGGSLRLSCAASGYTFIDNAMGWYRQAPGRERELVAAISDSAGDTYYADSVKGRFTISRDNAKNTVYLQMNSLKPEDTSVYYCAARGYLRGEQLYVFIRYDYWGHGTQVTVSS | low polyreactivity
QVQLVESGGGLVQAGGSLRLSCAASGYTFIDYAMGWYRQAPGKETELVAAITRGGRTNYADSVKGRFTISRDNAKNTVYLQMNSLKPEDTAVYYCAAALRRRRADFDYWGQGTQVTVSS | high polyreactivity
QVQLVESGGGLVQAGGSLRLSCAASGYTFIINAMGWYRQAPGKERELVASISGGGTYYADSVKGRFTISRDNAKNTVYLEMNSLKREDTAVYYCNATRRRKYYKYGGDYWGQGTQVTVSS | high polyreactivity
QVQLVESGGGLVQAGGSLRLSCAASGYTFIVNAMGWYRQAPGKERELVAGISYRGGRTFYADSVKGRFTISRDNAKNTVYLQMTSLKPEDTAVYYCAARKTGIPFYNYDYWGQGTQVTVSS | low polyreactivity
QVQLVESGGGLVQAGGSLRLSCAASGYTFLISAMGWYRQAPGKERELVAVISSGGSTSYADSVKGRFTISRDNAKNTVYLQMNSLKPEDSAVYYCAAALAGGRRGGDYWGQGTQVTVSS | low polyreactivity
QVQLVESGGGLVQAGGSLRLSCAASGYTFLPNAMGWYRQAPGKESEFVAAISYSGGRTYYADSVKGRFTISRDNAKNTVYLLMNSLKPEDTAVYYCARDRRYWAVLSDYWGQGTQVTVSS | low polyreactivity
QVQLVESGGGLVQAGGSLRLSCAASGYTFLYYAMGWYRQAPGKEREFVAAISRSGGSTYYADSVKGRFTISRDNAKNTVYLQMNSLKPEDTAVYYCAARFRYQHQRGDYWGQGTQVTVSS | high polyreactivity
QVQLVESGGGLVQAGGSLRLSCAASGYTFNRNAMGWYRQAPGKERELVASITRRGGYTYYADSVKGRFTISRDNAKNTDYLQMISLKPEDTAVYYCAVESIRTGDYWGQGTQVTVSS | high polyreactivity
QVQLVESGGGLVQAGGSLRLSCAASGYTFPKYAMGWYRQAPGKERELVAAITKRGGRTYSADSVKGRFTISRDNAKNTVYLQMNSLKPEDTAVYYCAVDLDGPEYSQVHYDYWGQGTQVTVSS | high polyreactivity
QVQLVESGGGLVQAGGSLRLSCAASGYTFPLYAMGWYRQAPGTERELVADINIGGASTYYADSVKGRFTISRDNAKNTVYLQMNSLKPEDTAVYYCAADYTVRVVATYDYWGQGTQVTVSS | low polyreactivity
QVQLVESGGGLVQAGGSLRLSCAASGYTFPRYTMGRYRQAPGKERELVAVIRRSGGTHYADSVKGRFTISRDNAKNTVYLLMYSLNPVDIAVYYCAVVSLLQNIPYGFWGQGTQVTVSS | high polyreactivity
QVQLVESGGGLVQAGGSLRLSCAASGYTFPSYAMGWYRQAPGKERELVAVITIGGTYYADSVKGRFTISRDNAKNTVYLQMNSLKPEDTAVYYCAADWAWDYYRGFDYWGQGTQVTVSS | low polyreactivity
